Measurements taken from patent US7101845 (JOSLIN DIABETES CENTER, dated 2006).
Positions of bridges follow the written chain, without caps; N, C: chain ends.

Biological target: MCH receptor (MCHR1) (mouse, UniProt Q8JZL2 1-353)
Assay: cell-based or functional assay

Chain of MCH receptor (MCHR1) (Q8JZL2 whole entry): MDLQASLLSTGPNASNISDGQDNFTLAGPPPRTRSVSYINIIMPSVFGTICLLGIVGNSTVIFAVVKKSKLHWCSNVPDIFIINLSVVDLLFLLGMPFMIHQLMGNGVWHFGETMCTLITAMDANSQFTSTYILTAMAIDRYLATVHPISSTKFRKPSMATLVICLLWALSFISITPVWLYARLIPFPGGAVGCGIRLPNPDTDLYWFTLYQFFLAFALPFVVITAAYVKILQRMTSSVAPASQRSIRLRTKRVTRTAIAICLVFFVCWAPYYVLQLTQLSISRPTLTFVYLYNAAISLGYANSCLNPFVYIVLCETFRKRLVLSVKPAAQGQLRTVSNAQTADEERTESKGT

B1: Melanocyte concentrating hormone (MCH) (peptide)
peptide: H-DFDMLRCMLGRVYRPCWQV-OH
modifications: disulfide 7-16 (inferred)
  insulin secretion from islets of MCH over expressing mice: 4 fold
  insulin secretion from overnight cultured islets of C57B1/6J mice, 100 nM MCH, 30 min, 11.1 mM glucose: 2.4 fold
